For test [1], the target named is T1, integrin αvβ3 receptor on cells (HUVEC, U87MG, MCF-7, ES-2-luc) (human, UniProt P06756 31-1048; P05106 27-788).
T1 construct: whole, on cells; HUVEC and U87MG express αvβ3 highly, MCF-7 has low or no expression and ES-2-luc moderate expression; also called integrin αvβ3 on cells; integrin receptor on the cell membrane
In words: immunofluorescence on U87MG and HUVEC cells, no anti-His6tag signal.
Text: Immunofluorescence is used to observe the distribution of the protein bound with cell in the cell.

Test [2] addresses T1, integrin αvβ3 receptor on cells (HUVEC, …). In words: cell ELISA on MCF-7 cells (low αvβ3 expression), anti-His-HRP. A general note: ELISA stands for enzyme-linked immunosorbent assay.
Text: (§1) After reacted with anti-His-HRP antibody and TMB substrate, ELISA reader (OD450 nm) is used to detect the amount of recombinant protein bound to the cells, and the binding curve is drawn. The nonlinear curve of the prism software is used to make a diagram and calculate the dissociation constant (Kd).
(§2) The anti-His6-Tag-HRP antibody and TMB show the color reagent to detect the amount of recombinant protein bound to the cell, then the dissociation constant Kd value of the recombinant protein and the integrin αᵥβ₃ receptor is calculated and a binding curve is drawn.
For test [3], the target named is T2, integrin αvβ3 receptor (UniProt P06756 31-992; P05106 27-718).
T2 construct: also called αvβ3 integrin; αvβ3 integrin receptor
In words: ELISA on integrin αvβ3 receptor, anti-His6-HRP detection, curve fit.
Text: (§3) The dissociation constant Kd is obtained by prism software with curve fitting method.

Test [4] concerns the target T1, integrin αvβ3 receptor on cells (HUVEC, …). The experiment in a line: cell-based or functional assay.
Test [5] shares this target. The experiment in a line: cell ELISA on U87MG cells, anti-His-HRP.
Text: as §1, §2
The target is the same in test [6]. The experiment in a line: cell ELISA, HUVEC against MCF-7.
For test [7] the target is unchanged. The experiment in a line: cell ELISA on HUVEC cells, anti-His-HRP.
Text: as §1, §2
Test [8] shares this target. The experiment in a line: cell ELISA, U87MG against MCF-7.
Test [9] has as its target T2, integrin αvβ3 receptor. In words: ELISA on integrin αvβ3 receptor (repeats Table 14).
For test [10], the target named is T2, integrin αvβ3 receptor. The experiment in a line: ELISA on integrin αvβ3 receptor, one site-specific binding fit.
Text: The curve and receptor binding ability parameters (see FIG. 19 and Table 14) are fitted by the binding ability of DTPA-modified protein and integrin αᵥβ₃ receptor through the One site-Specific binding formula in the Graph prism program.
In test [11] the target is T2, integrin αvβ3 receptor. The experiment in a line: ELISA on integrin αvβ3 receptor, anti-His6-HRP; paragraph 61 says yCD and yCD/UPRT cannot be bound to integrin αvβ3.
Text: as §3
Test [12] has as its target T1, integrin αvβ3 receptor on cells (HUVEC, …). The experiment in a line: cell-based or functional assay. This is another data set of the same source.
Test [13] has the same target. In words: cell-based or functional assay. The source holds these as a separate data set.
Test [14] has the same target. In words: cell ELISA on fixed U87MG cells, anti-His6tag-HRP.
Test [15] has the same target. The experiment in a line: cell ELISA on fixed HUVEC cells, anti-His6tag-HRP.
Test [16] deals with T2, integrin αvβ3 receptor. In words: ELISA on αvβ3 integrin receptor.
Test [17] has as its target T1, integrin αvβ3 receptor on cells (HUVEC, …). The experiment in a line: cell ELISA on fixed MCF-7 cells (low αvβ3 expression), anti-His6tag-HRP.

A word on the Kd: it is the free concentration of one partner at which half of the binding sites on the other are occupied at equilibrium, for simple one-to-one binding.

T1 sequence (P06756 31-1048, chain 1 of 2): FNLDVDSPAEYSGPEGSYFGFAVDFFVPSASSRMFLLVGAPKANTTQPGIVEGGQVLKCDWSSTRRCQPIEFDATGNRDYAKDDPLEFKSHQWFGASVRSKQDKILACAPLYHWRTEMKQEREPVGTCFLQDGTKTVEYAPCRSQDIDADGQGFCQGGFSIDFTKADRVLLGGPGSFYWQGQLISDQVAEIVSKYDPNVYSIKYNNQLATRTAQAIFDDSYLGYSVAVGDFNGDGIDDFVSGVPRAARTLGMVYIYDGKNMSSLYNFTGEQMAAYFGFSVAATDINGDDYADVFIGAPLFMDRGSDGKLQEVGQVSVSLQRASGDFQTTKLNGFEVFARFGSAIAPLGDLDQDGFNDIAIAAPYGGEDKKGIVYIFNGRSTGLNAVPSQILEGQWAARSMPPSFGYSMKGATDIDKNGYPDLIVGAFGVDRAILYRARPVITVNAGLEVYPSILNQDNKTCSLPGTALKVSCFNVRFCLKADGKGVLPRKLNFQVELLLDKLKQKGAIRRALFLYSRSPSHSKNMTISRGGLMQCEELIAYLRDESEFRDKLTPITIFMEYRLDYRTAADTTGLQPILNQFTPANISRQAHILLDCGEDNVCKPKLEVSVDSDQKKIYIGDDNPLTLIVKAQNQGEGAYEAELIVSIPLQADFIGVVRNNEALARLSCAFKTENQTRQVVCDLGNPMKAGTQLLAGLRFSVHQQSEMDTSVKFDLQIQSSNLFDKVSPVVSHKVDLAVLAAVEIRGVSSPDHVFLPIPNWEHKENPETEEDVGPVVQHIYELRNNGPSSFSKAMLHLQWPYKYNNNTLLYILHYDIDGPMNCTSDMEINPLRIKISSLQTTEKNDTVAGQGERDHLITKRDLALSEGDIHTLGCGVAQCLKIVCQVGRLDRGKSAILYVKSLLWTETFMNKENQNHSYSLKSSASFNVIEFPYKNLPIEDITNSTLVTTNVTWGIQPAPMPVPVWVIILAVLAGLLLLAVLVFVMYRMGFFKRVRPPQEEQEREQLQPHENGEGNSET
T1 sequence (P05106 27-788, chain 2 of 2): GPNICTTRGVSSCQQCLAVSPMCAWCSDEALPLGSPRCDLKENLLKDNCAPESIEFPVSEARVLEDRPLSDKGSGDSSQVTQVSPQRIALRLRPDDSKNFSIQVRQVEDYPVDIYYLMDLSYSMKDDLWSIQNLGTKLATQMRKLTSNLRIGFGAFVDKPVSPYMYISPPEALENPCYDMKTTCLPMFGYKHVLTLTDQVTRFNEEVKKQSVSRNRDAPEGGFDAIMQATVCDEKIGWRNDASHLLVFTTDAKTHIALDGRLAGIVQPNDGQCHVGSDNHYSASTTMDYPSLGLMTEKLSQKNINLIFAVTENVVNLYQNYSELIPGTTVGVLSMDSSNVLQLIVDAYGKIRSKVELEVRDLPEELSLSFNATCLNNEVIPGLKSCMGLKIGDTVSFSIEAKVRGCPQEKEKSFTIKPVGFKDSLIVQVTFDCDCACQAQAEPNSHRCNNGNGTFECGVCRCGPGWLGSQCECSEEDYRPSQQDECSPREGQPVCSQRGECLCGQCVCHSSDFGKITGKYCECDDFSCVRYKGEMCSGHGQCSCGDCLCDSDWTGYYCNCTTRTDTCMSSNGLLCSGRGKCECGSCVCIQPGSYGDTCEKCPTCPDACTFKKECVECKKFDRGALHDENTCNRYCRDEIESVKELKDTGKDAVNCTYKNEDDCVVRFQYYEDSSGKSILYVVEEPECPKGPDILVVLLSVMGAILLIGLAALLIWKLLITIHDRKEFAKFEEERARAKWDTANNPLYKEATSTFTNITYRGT
T2 sequence (P06756 31-992, chain 1 of 2): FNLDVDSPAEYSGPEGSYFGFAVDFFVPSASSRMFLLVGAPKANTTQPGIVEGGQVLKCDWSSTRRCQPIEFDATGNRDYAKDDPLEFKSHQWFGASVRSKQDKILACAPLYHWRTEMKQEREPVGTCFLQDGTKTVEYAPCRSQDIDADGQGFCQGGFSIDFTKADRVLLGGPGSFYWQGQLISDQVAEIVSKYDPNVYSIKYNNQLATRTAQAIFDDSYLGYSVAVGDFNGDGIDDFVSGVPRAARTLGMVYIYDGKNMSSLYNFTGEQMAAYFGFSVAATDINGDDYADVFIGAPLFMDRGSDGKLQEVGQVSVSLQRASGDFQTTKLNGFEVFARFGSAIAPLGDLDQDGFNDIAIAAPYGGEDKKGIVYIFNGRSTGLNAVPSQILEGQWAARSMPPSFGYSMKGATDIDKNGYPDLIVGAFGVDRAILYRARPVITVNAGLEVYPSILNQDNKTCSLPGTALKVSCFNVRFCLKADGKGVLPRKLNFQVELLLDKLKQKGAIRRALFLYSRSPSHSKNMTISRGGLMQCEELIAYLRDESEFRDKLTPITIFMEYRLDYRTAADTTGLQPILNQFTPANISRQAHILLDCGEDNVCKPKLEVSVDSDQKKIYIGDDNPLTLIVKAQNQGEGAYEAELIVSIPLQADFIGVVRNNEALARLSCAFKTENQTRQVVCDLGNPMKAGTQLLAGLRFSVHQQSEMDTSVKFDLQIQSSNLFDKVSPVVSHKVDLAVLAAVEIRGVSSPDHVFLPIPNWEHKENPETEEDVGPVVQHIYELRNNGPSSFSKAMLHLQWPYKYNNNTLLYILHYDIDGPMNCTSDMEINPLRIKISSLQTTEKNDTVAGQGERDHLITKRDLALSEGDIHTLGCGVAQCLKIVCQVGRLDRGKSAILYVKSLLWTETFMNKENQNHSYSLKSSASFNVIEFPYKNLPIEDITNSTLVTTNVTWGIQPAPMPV
T2 sequence (P05106 27-718, chain 2 of 2): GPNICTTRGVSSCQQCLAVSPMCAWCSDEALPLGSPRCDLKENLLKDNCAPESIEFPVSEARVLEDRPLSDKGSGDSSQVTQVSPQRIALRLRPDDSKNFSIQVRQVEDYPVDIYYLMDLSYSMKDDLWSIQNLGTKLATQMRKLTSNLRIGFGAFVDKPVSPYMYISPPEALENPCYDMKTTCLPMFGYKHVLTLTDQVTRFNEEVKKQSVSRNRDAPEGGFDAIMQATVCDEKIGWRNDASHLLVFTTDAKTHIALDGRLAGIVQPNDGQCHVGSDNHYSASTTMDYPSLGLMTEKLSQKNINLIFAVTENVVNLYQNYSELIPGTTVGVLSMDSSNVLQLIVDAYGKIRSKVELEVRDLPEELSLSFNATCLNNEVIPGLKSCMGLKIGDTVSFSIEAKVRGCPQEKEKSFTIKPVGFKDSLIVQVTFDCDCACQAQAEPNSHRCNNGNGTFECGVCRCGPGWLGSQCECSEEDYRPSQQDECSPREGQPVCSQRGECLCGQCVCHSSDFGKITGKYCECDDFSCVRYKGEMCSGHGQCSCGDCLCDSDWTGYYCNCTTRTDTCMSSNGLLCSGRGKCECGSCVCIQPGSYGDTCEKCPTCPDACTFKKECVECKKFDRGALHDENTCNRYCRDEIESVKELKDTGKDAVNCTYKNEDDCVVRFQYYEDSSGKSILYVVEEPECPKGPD

B1: EcCD_WT (enzyme, E. coli)
chain: MSNNALQTIINARLPGEEGLWQIHLQDGKISAIDAQSGVMPITENSLDAEQGLVIPPFVEPHIHLDTTQTAGQPNWNQSGTLFEGIERWAERKALLTHDDVKQRAWQTLKWQIANGIQHVRTHVDVSDATLTALKAMLEVKQEVAPWIDLQIVAFPQEGILSYPNGEALLEEALRLRADVVGAIPHFEFTREYGVESLHKTFALAQKYDRLIDVHCDEIDDEQSRFVETVAALAHHEGMGARVTASHTTAMHSYNGAYTSRLFRLLKMSGINFVANPLVNIHLQGRFDTYPKRRGITRVKEMLESGINVCFGHDDVFDPWYPLGTANMLQVLHMGLHVCQLMGYGQINDGLNLITHHSARTLNLQDYGIAAGNSANLIILPAENGFDALRRQVPVRYSVRGGKVIASTQPAQTTVYLEQPEAIDYKRLEHHHHHH
notes: Control without RGD4C; also called E. coli cytosine deaminase (EcCD) wild type
For B1, in test [1], the binding result is “no binding”.

B2: EcCD_D314A (enzyme)
chain: MSNNALQTIINARLPGEEGLWQIHLQDGKISAIDAQSGVMPITENSLDAEQGLVIPPFVEPHIHLDTTQTAGQPNWNQSGTLFEGIERWAERKALLTHDDVKQRAWQTLKWQIANGIQHVRTHVDVSDATLTALKAMLEVKQEVAPWIDLQIVAFPQEGILSYPNGEALLEEALRLRADVVGAIPHFEFTREYGVESLHKTFALAQKYDRLIDVHCDEIDDEQSRFVETVAALAHHEGMGARVTASHTTAMHSYNGAYTSRLFRLLKMSGINFVANPLVNIHLQGRFDTYPKRRGITRVKEMLESGINVCFGHDAVFDPWYPLGTANMLQVLHMGLHVCQLMGYGQINDGLNLITHHSARTLNLQDYGIAAGNSANLIILPAENGFDALRRQVPVRYSVRGGKVIASTQPAQTTVYLEQPEAIDYKRLEHHHHHH
notes: Control without RGD4C; also called E. coli cytosine deaminase D314A mutant
For B2, the binding result in test [1] was “no binding”.

B3: RGD4C-yCD/UPRT (other)
chain: MACDCRGDCFCVTGGMASKWDQKGMDIAYEEAALGYKEGGVPIGGCLINNKDGSVLGRGHNMRFQKGSATLHGEISTLENCGRLEGKVYKDTTLYTTLSPCDMCTGAIIMYGIPRCVVGENVNFKSKGEKYLQTRGHEVVVVDDERCKKIMKQFIDERPQDWFEDIGEASEPFKNVYLLPQTNQLLGLYTIIRNKNTTRPDFIFYSDRIIRLLVEEGLNHLPVQKQIVETDTNENFEGVSFMGKICGVSIVRAGESMEQGLRDCCRSVRIGKILIQRDEETALPKLFYEKLPEDISERYVFLLDPMLATGGSAIMATEVLIKRGVKPERIYFLNLICSKEGIEKYHAAFPEVRIVTGALDRGLDENKYLVPGLGDFGDRYYCVLEHHHHHH
notes: Fusion of the RGD4C peptide, yCD and yeast UPRT; His6-tagged recombinant protein; also called RGD4C-yCD/UPRPT
For the molecule B3, the Kd was 0.335 µM in [2], 0.0417 µM in the test with integrin αvβ3 receptor [3], 0.0578 µM in test [5] and 0.0483 µM in test [7]. Also, the “IC50 of 5-FC, MTT cytotoxicity, HUVEC cells incubated with 500 nM protein then washed” value in [4] is 8.6 µM. Further, the “IC50 of 5-FC, MTT cytotoxicity, MCF-7 cells (low αvβ3) incubated with 500 nM protein then washed” value in [4] was determined as 4340 µM. The “IC50 of 5-FC, MTT cytotoxicity, U87MG cells incubated with 500 nM protein then washed” value in test [4] turned out to be 5.1 µM. Further, the “fold cell binding ability against MCF-7” value is around 6.9 fold in test [6] and around 5.8 fold in [8].

B4: DTPA-RGD4C-yCD (other)
chain: MACDCRGDCFCVTGGMASKWDQKGMDIAYEEAALGYKEGGVPIGGCLINNKDGSVLGRGHNMRFQKGSATLHGEISTLENCGRLEGKVYKDTTLYTTLSPCDMCTGAIIMYGIPRCVVGENVNFKSKGEKYLQTRGHEVVVVDDERCKKIMKQFIDERPQDWFEDIGELEHHHHHH
modifications: DTPA on primary amines, 0.94 DTPA per protein on average
Take B4: the Kd in the test with integrin αvβ3 receptor [9] and in the test with integrin αvβ3 receptor [10] was 0.0476 µM in each case.

B5: yeast cytosine deaminase (yCD) (enzyme)
chain: MVVTGGMASKWDQKGMDIAYEEAALGYKEGGVPIGGCLINNKDGSVLGRGHNMRFQKGSATLHGEISTLENCGRLEGKVYKDTTLYTTLSPCDMCTGAIIMYGIPRCVVGENVNFKSKGEKYLQTRGHEVVVVDDERCKKIMKQFIDERPQDWFEDIGELEHHHHHH
notes: Recombinant, from pET28a(+), detected by its His6 tag
Turning to B5, the binding result with integrin αvβ3 receptor [11] is “no binding”.

B6: yCD/UPRT (enzyme)
chain: MVVTGGMASKWDQKGMDIAYEEAALGYKEGGVPIGGCLINNKDGSVLGRGHNMRFQKGSATLHGEISTLENCGRLEGKVYKDTTLYTTLSPCDMCTGAIIMYGIPRCVVGENVNFKSKGEKYLQTRGHEVVVVDDERCKKIMKQFIDERPQDWFEDIGEASEPFKNVYLLPQTNQLLGLYTIIRNKNTTRPDFIFYSDRIIRLLVEEGLNHLPVQKQIVETDTNENFEGVSFMGKICGVSIVRAGESMEQGLRDCCRSVRIGKILIQRDEETALPKLFYEKLPEDISERYVFLLDPMLATGGSAIMATEVLIKRGVKPERIYFLNLICSKEGIEKYHAAFPEVRIVTGALDRGLDENKYLVPGLGDFGDRYYCVLEHHHHHH
notes: Control fusion without RGD4C
For B6, the binding result with integrin αvβ3 receptor [11] was “no binding”.

B7: RGD4C-EcCD_WT (other)
chain: MGCDCRGDCFCMSNNALQTIINARLPGEEGLWQIHLQDGKISAIDAQSGVMPITENSLDAEQGLVIPPFVEPHIHLDTTQTAGQPNWNQSGTLFEGIERWAERKALLTHDDVKQRAWQTLKWQIANGIQHVRTHVDVSDATLTALKAMLEVKQEVAPWIDLQIVAFPQEGILSYPNGEALLEEALRLRADVVGAIPHFEFTREYGVESLHKTFALAQKYDRLIDVHCDEIDDEQSRFVETVAALAHHEGMGARVTASHTTAMHSYNGAYTSRLFRLLKMSGINFVANPLVNIHLQGRFDTYPKRRGITRVKEMLESGINVCFGHDDVFDPWYPLGTANMLQVLHMGLHVCQLMGYGQINDGLNLITHHSARTLNLQDYGIAAGNSANLIILPAENGFDALRRQVPVRYSVRGGKVIASTQPAQTTVYLEQPEAIDYKRLEHHHHHH
notes: Fusion of the RGD4C peptide with E. coli cytosine deaminase; His6-tagged
As for B7, the “protein reaction concentration IC50 of cytotoxic effect, MTT, HUVEC cells, 100 µM 5-FC” value in test [12] was 0.0229 µM. For the same molecule, in test [12], the “protein reaction concentration IC50 of cytotoxic effect, MTT, U87MG cells, 100 µM 5-FC” value came out at 0.0385 µM. The “IC50 of 5-FC, MTT cytotoxicity, HUVEC cells incubated with 50 nM protein then washed” value in [13] is 35.9 µM. In addition, in test [13], the “IC50 of 5-FC, MTT cytotoxicity, MCF-7 cells (low αvβ3) incubated with 50 nM protein then washed” value is above 10000 µM. Also, the “IC50 of 5-FC, MTT cytotoxicity, U87MG cells incubated with 50 nM protein then washed” value in [13] turned out to be 44.1 µM. The dissociation constant Kd in test [14] was determined as 0.0138 µM; in [15], 0.0203 µM; with integrin αvβ3 receptor [16], 0.007 µM; in test [17], 0.327 µM. The results for the “fold binding ability against MCF-7” value in [6] and in test [8] were 16.1 fold and 23.7 fold, respectively.

B8: RGD4C-EcCD_D314A (other)
chain: MGCDCRGDCFCMSNNALQTIINARLPGEEGLWQIHLQDGKISAIDAQSGVMPITENSLDAEQGLVIPPFVEPHIHLDTTQTAGQPNWNQSGTLFEGIERWAERKALLTHDDVKQRAWQTLKWQIANGIQHVRTHVDVSDATLTALKAMLEVKQEVAPWIDLQIVAFPQEGILSYPNGEALLEEALRLRADVVGAIPHFEFTREYGVESLHKTFALAQKYDRLIDVHCDEIDDEQSRFVETVAALAHHEGMGARVTASHTTAMHSYNGAYTSRLFRLLKMSGINFVANPLVNIHLQGRFDTYPKRRGITRVKEMLESGINVCFGHDAVFDPWYPLGTANMLQVLHMGLHVCQLMGYGQINDGLNLITHHSARTLNLQDYGIAAGNSANLIILPAENGFDALRRQVPVRYSVRGGKVIASTQPAQTTVYLEQPEAIDYKRLEHHHHHH
notes: Fusion of the RGD4C peptide with the E. coli cytosine deaminase D314A mutant; His6-tagged
For the molecule B8, in [12], the “protein reaction concentration IC50 of cytotoxic effect, MTT, HUVEC cells, 100 µM 5-FC” value is 0.0098 µM. For the same molecule, the “protein reaction concentration IC50 of cytotoxic effect, MTT, U87MG cells, 100 µM 5-FC” value in [12] worked out at 0.004 µM. For the same molecule, the “IC50 of 5-FC, MTT cytotoxicity, HUVEC cells incubated with 50 nM protein then washed” value in test [13] turned out to be 8.2 µM. The “IC50 of 5-FC, MTT cytotoxicity, MCF-7 cells (low αvβ3) incubated with 50 nM protein then washed” value in test [13] was above 10000 µM. Besides, the “IC50 of 5-FC, MTT cytotoxicity, U87MG cells incubated with 50 nM protein then washed” value in test [13] came to 5 µM. The equilibrium dissociation constant (Kd) in test [14] was determined as 0.0151 µM; in [15], 0.0233 µM; with integrin αvβ3 receptor [16], 0.0091 µM; in test [17] it was 0.3 µM. Further, the “fold binding ability against MCF-7” value in test [6] is 12.9 fold; in test [8], 19.9 fold.

The record behind these values is patent publication US20190211057A1 (NATIONAL YANG MING UNIVERSITY, published 2019).
